This note sets out measurements from article PMC9889962.

Experiment in all cases: SPR
In assay [1] the target is SARS-CoV-2 Omicron BA.2 spike protein trimer (SARS-CoV-2) (UniProt P0DTC2).
Assay [2] has as its target SARS-CoV-2 Omicron BA.5 spike protein trimer (SARS-CoV-2) (UniProt P0DTC2).
In assay [3] the target is SARS-CoV-2 Omicron BQ.1.1 spike protein trimer (SARS-CoV-2) (UniProt P0DTC2).
Assay [4] deals with SARS-CoV-2 Omicron BA2.75 spike protein trimer (SARS-CoV-2) (UniProt P0DTC2).
Assay [5] has as its target SARS-CoV-2 Omicron BA4.6 spike protein trimer (SARS-CoV-2) (UniProt P0DTC2).
The target in assay [6] is SARS-CoV-2 Omicron XBB.1 spike protein trimer (SARS-CoV-2) (UniProt P0DTC2).

Consider “LiVE-Longer YTE chimera (ACE-2 LVE/STR-YTE fusion protein) (from UniProt Q9BYF1 18-740) (Fc fusion)”, for which the Kd in assay [1] is 0.078 pM; in assay [2], 5.43 pM; in assay [3] it was 1.81 pM; in assay [4], 0.133 pM; in assay [5] it was 845 pM; in assay [6], 215 pM.
